Patent US20240053360A1 (EQUILLIUM, published 2024)

Molecular target: T1, cell surface CD6 on human T cells (CD4 and CD8 T cells of PBMCs / whole blood) (human, UniProt P30203 18-668)
T1 construct: whole, on cells
T1 sequence (looked up): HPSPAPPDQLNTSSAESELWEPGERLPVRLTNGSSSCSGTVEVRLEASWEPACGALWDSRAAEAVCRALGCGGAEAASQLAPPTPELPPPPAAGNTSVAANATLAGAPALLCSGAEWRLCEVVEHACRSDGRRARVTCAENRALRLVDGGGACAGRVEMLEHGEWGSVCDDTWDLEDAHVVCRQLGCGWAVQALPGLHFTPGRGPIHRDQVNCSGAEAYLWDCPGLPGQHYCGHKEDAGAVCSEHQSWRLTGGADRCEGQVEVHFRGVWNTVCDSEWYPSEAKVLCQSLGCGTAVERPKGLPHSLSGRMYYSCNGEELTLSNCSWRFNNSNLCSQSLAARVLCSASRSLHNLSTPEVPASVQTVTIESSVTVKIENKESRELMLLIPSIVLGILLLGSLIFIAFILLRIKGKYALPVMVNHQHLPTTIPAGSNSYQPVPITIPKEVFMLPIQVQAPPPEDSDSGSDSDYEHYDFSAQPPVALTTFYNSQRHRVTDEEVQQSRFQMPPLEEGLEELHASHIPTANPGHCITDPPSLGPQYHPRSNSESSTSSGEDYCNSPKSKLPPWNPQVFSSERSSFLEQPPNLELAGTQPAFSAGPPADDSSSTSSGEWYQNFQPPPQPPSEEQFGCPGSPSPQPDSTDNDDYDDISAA
Test: flow cytometry, receptor occupancy on CD4 and CD8 T cells

B1: itolizumab (antibody, human IgG1, kappa, V domains shown)
VH: EVQLVESGGGLVKPGGSLKLSCAASGFKFSRYAMSWVRQAPGKRLEWVATISSGGSYIYYPDSVKGRFTISRDNVKNTLYLQMSSLRSEDTAMYYCARRDYDLDYFDSWGQGTLVTVSS
VL: DIQMTQSPSSLSASVGDRVTITCKASRDIRSYLTWYQQKPGKAPKTLIYYATSLADGVPSRFSGSGSGQDYSLTISSLESDDTATYYCLQHGESPFTLGSGTKLEIKR
notes: Humanized anti-CD6 monoclonal antibody; also called EQ001; ALZUMAB
binding result: binds
